Reference: patent US20230192897A1 (NUMAB THERAPEUTICS, published 2023)
Each block holds one binder with its values, some of them ahead of it.

Experiments:
Fc tagged human PDL1 = biological target: T1, Fc tagged human PDL1 (human, UniProt Q9NZQ7 19-239); test: SPR
T1 construct: Bought (Sino Biological, cat. 10084-H02H); captured on the SPR chip; also called PDL1-Fc chimeric protein
Procedure: (§1) Affinity to PDL1 of the different species was determined by SPR measurements using a Biacore T200 device (GE Healthcare). An antibody specific for the Fc region of human IgGs was immobilized on a sensor chip (CM5 sensor chip, GE Healthcare) by amine-coupling. For all formats, with the exception of the Fc containing Morrison formats, PDL1-Fc chimeric protein from different species were captured by the immobilized antibody.
(§2) Three-fold serial dilutions of the molecules specific for PDL1 (0.12-90 nM) were injected into the flow cells for three minutes and dissociation was monitored for 10 minutes. After each injection cycle, surfaces were regenerated with one injection of a 3 M MgCl₂ solution. The apparent dissociation (kd) and association (kₐ) rate constants and the apparent dissociation equilibrium constant (KD) were calculated using one-to-one Langmuir binding model. Affinity to CD137 of the different species was determined using the identical setup as for PDL1 with the exception that CD137-Fc chimeric protein from different species were captured by the immobilized antibody.

[1] = biological target: T2, mouse CD137-Fc chimeric protein (mouse, UniProt P20334 24-187, limits assumed); test: SPR
T2 sequence (looked up): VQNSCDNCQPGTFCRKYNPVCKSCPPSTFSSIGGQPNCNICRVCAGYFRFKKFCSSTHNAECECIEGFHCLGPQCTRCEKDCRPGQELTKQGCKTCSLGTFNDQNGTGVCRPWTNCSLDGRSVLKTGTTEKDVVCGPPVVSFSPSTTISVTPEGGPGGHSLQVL
Procedure: as §1, §2

Fc tagged human CD137 = biological target: T3, Fc tagged human CD137 (human, UniProt Q07011 24-186); test: SPR
T3 construct: also called CD137-Fc chimeric protein
Procedure: as §1, §2

human PDL1 on cells = human PDL1 on cells (human, UniProt Q9NZQ7 19-290); test: cell-based or functional assay
[2] = biological target: T4, CD137 on Jurkat NFkB reporter cells (human, UniProt Q07011 24-255); test: cell-based or functional assay
[3] = biological target: T4, CD137 on Jurkat NFkB reporter cells; test: cell-based or functional assay; remark: listed apart in the source
biotinylated human PDL1 [4] = biological target: T5, biotinylated human PDL1 (human, UniProt Q9NZQ7 19-238, limits assumed, biotinylated); test: competition ELISA B7.1/PDL1
T5 construct: also called biotinylated PDL1
Procedure: Plates were blocked for 1 hour at room temperature by adding 300 μl of PBS with 1% BSA and 0.2% tween (dilution buffer) to each well. […] The mixtures were pre-incubated for 1 hour at room temperature under gentle agitation on a rotating mixer (21 rpm) and added to the microplates after 3 wash cycles with 450 μl wash buffer per well. Plates were incubated for 1.5 hours at room temperature under gentle agitation, then 10 ng/ml streptavidin-polyHRP40 was added to each microplate well after three washes with 450 μl of wash buffer per well. After 1 h incubation at RT, plates were washed three times with 450 μl wash buffer and TMB substrate solution was added. The enzymatic reaction was stopped after 6 minutes by addition of 1 M HCl and absorbance was measured at 450 nm using 690 nm as a reference wavelength. For calculation of IC₅₀ values, a four-parameter logistic (4PL) curve fit was performed in Graph Pad Prism using reference subtracted values.

biotinylated human PDL1 [5] = biological target: T5, biotinylated human PDL1; test: competition ELISA PD-1/PDL1
Procedure: Plates were blocked for 1 hour at room temperature by adding 300 μl of PBS with i%BSA and 0.2% tween (dilution buffer) to each well. Inhibitors were serially diluted in 3-fold steps to final concentrations ranging from 300 to 0.005 ng/ml in dilution buffer containing 1 ng/ml biotinylated human PDL1. The mixtures were pre-incubated for 1 hour at room temperature under gentle agitation on a rotating mixer (21 rpm) and added to the microplates after 3 wash cycles with 450 μl wash buffer per well. Plates were incubated for 1.5 hours at room temperature under gentle agitation, then 10 ng/ml streptavidin-polyHRP40 was added to each microplate well after three washes with 450 μl of wash buffer per well. After 1 h incubation at RT, plates were washed three times with 450 μl wash buffer and TMB substrate solution was added. The enzymatic reaction was stopped after 6 minutes by addition of 1 M HCl and absorbance was measured at 450 nm using 690 nm as a reference wavelength. For calculation of IC₅₀ values, a four-parameter logistic (4PL) curve fit was performed in Graph Pad Prism using reference subtracted values.

Kd (Fc tagged human PDL1): 0.067 nM
koff (Fc tagged human PDL1): 0.00011 s⁻¹
kon (Fc tagged human PDL1): 1.7e+06 M⁻¹ s⁻¹
Kd [1]: 510 nM
koff [1]: 0.27 s⁻¹
Kd (Fc tagged human CD137): 3.7 nM
kon (Fc tagged human CD137): 200000 M⁻¹ s⁻¹
B1: PRO1125 (bispecific antibody)
chain: DIQMTQSPSSLSASVGDRVTITCQASQSINDYLAWYQQKPGKSPKLLIYKASTLASGVPSRFSGSGSGTDFTLTISSLQPEDFATYYCQQGYIITDIDNVFGTGTKVTVLGGGGGSQVQLQESGPGLVKPSETLSLTCKVSGFSFSNSYWICWIRQPPGKGLEWIGCTFVGSSDSTYYANWAKGRVTISVDSSKNQFSLKLSSVTAADTAVYYCARHPSDAVYGYANNLWGQGTLVTVSSGGGGSGGGGSGGGGSGGGGSIQMTQSPSSLSASVGDRVTITCQASQSINNVLAWYQQKPGKAPKLLIYRASTLASGVPSRFSGSGSGTDFTLTISSLQPEDFATYYCQSSYGNYGDFGTGTKVTVLGGGGGSQVQLQESGPGLVKPSETLSLTCKVSGFSFSSGYDMCWVRQPPGKGLEWIACVVAGSVDITYYASWAKGRVTISVDSSKNQFSLKLSSVTAADTAVYFCARKDAYSDAFNLWGQGTLVTVSS
notes: scDb; also called 38-02-A04 sc01 scDb-i/33-03-G02 sc02 IF scDb-o

Kd (Fc tagged human PDL1): 0.0092 nM
kon (Fc tagged human PDL1): 4.7e+06 M⁻¹ s⁻¹
Kd (Fc tagged human CD137): 0.33 nM
koff (Fc tagged human CD137): 0.0002 s⁻¹
kon (Fc tagged human CD137): 630000 M⁻¹ s⁻¹
IC50 (ng/ml), NF-AT potency assay, +HSA (human PDL1 on cells): 40.6 ng/mL
rel. IC50 (avelumab/test), +HSA (human PDL1 on cells): 0.92 fold
IC50 (ng/ml) (EC50 in Table 16C), NFkB reporter, HCC827 + IFNg, 24 h, +HSA [2]: 5.51 ng/mL
rel. IC50 (PRO1186/test), 24 h [2]: 0.58 fold
Area under the curve (calculated using PRO885 normalized data), first line (6 h by the order of the upper part) [3]: 292
Area under the curve (calculated using PRO885 normalized data), second line (24 h by the order of the upper part) [3]: 254
EC50 [ng/ml], NF-kB reporter, HCC827 + IFNg, +HSA, 6 h [3]: 7.22 ng/mL
IC10/EC90 ratio, first line (6 h by the order of the upper part) [3]: 23.7
IC10/EC90 ratio, second line (24 h by the order of the upper part) [3]: 41
Maximum NF-kB activation (rel. to PRO1186) [%], first line (6 h by the order of the upper part) [3]: 147%
Maximum NF-kB activation (rel. to PRO1186) [%], second line (24 h by the order of the upper part) [3]: 117%
rel. Area under the curve (AUCsample/AUCPRO1186), first line (6 h by the order of the upper part) [3]: 1.37 fold
rel. Area under the curve (AUCsample/AUCPRO1186), second line (24 h by the order of the upper part) [3]: 1 fold
rel. EC50 (EC50, PRO1186/EC50, sample), NF-kB reporter, 6 h [3]: 1.04 fold
rel. EC50 (EC50, PRO1186/EC50, sample), NF-kB reporter, 24 h [3]: 0.58 fold
rel. IC10/EC90 (ratio of sample/ratio of PRO1186), first line (6 h by the order of the upper part) [3]: 1.71 fold
rel. IC10/EC90 (ratio of sample/ratio of PRO1186), second line (24 h by the order of the upper part) [3]: 5.72 fold
IC50 (biotinylated human PDL1 [4]): 10.1 ng/mL
rel. IC50 (IC50 avelumab/IC50 test) (biotinylated human PDL1 [4]): 1.45 fold
IC50 (biotinylated human PDL1 [5]): 2.69 ng/mL
rel. IC50 (IC50 avelumab/IC50 test) (biotinylated human PDL1 [5]): 0.84 fold
B2: PRO1481 (other)
chain: DIQMTQSPASLSASVGDRVTITCQASQSIGTYLAWYQQKPGKPPKLLIYRAFILASGVPSRFSGSGSGTDFTLTISSLQPEDFATYYCQSNFYSDSTTIGPNAFGTGTKVTVLGGGGGSESQLVESGGGLVQPGGSLRLSCAASGFSFSANYYPCWVRQAPGKGLEWIGCIYGGSSDITYDANWTKGRFTISRDNSKNTVYLQMNSLRAEDTAVYFCARSAWYSGWGGDLWGPGTLVTVSSGGGGSGGGGSGGGGSGGGGSFQLTQSPSSLSASVGDRVTITCQASQSISNRLAWYQQKPGKPPKLLIYSASTLASGVPSRFSGSGSGTDFTLTISSLQPEDFATYYCQSTYYGNDGNAFGTGTKVTVLGGGGGSEVQLVESGGGLVQPGGSLRLSCAASGFSFNSDYWIYWVRQAPGKGLEWIASIYGGSSGNTQYASWAQGRFTISRDNSKNTVYLQMNSLRAEDTAVYFCARGYVDYGGATDLWGQGTLVTVSSGGGGSGGGGSIQMTQSPSSLSASVGDRVTITCQSSESVYSNNQLSWYQQKPGQPPKLLIYDASDLASGVPSRFSGSGSGTDFTLTISSLQPEDFATYYCAGGFSSSSDTAFGGGTKLTVLGGGGGSGGGGSGGGGSGGGGSEVQLVESGGGLVQPGGSLRLSCAASGFSLSSNAMGWVRQAPGKGLEYIGIISVGGFTYYASWAKGRFTISRDNSKNTVYLQMNSLRAEDTATYFCARDRHGGDSSGAFYLWGQGTLVTVSS
notes: trispecific scDb-scFv; also called 38-27-A11 sc03 scDb-i/37-20-B03 sc09.1 scDb-o/19-01-H04 sc03 scFv
